Measurements from the supplement of paper PMC10724198.
± gives the standard deviation of the averaged measurements.

Assays:
Saccharomyces cerevisiae [1] = assay: protein stability index of tFT-peptide fusion in wild type (PSI (0-1 scale)); higher = more stable (slower turnover); details: genetic background: wild type
Procedure: (§1)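 MPS profiling in S. cerevisiae of two library types built from selected 12-aa C-degron peptides (IN1, IN2, LN1, LN3, VN2, R1-R5, W1-W3, Atg1 and Rpa12 C-termini): saturation mutagenesis libraries and C-terminal +1 capping libraries (13 aa). Each peptide is fused to the C-terminus of a sfGFP-mCherry timer, after a GGGS linker. Cells are FACS-sorted into 8 mCherry/sfGFP bins and sequenced. PSI runs from 0 (unstable) to 1 (stable), measured once in wild type and in the das1Δ or doa10Δ background.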

Saccharomyces cerevisiae [2] = assay: protein stability index of tFT-peptide fusion in deletion strain of DOA10 (PSI (0-1 scale)); higher = more stable (slower turnover)
Procedure: as §1

Saccharomyces cerevisiae [3] = assay: protein stability index of tFT-peptide fusion in deletion strain of DAS1 (PSI (0-1 scale)); higher = more stable (slower turnover)
Procedure: as §1

Saccharomyces cerevisiae [4] = assay: protein stability index of tFT-peptide fusion (C-terminal peptide) (PSI (0-1 scale)); higher = more stable (slower turnover)
Procedure: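 MPS profiling in S. cerevisiae of the tFT-X12 degron library: putative degron peptides plus stable controls, 12 aa, fused to the C-terminus of a sfGFP-mCherry timer. Cells are FACS-sorted into 8 mCherry/sfGFP bins and deep-sequenced. PSI runs from 0 (unstable) to 1 (stable). Backgrounds are wild type, das1Δ and doa10Δ at 30 °C, and wild type, das1Δ, cdc34-1 and cdc53-1 at 37 °C; 2-3 technical replicates each.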

Saccharomyces cerevisiae [5] = assay: as above; details: genetic background: wild type; temperature: 30 C
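Throughout, for protein stability index of tFT-peptide fusion (C-terminal peptide): PSI is a weighted mean of sequencing reads over stability bins, variants kept only with over 10 reads, mCherry proximal and sfGFP distal, peptide attached via GGGS linker.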
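Throughout, for protein stability index of tFT-peptide fusion in deletion strain of DAS1: PSI is a weighted mean of each variant's read distribution over the sorted stability bins, computed only for variants having over 10 reads in total.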
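Throughout, for protein stability index of tFT-peptide fusion in deletion strain of DOA10: PSI per variant is the weighted mean of its sequencing read distribution over the sorted stability bins, counting only variants with over 10 reads summed across bins.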
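Throughout, for protein stability index of tFT-peptide fusion in wild type: PSI derived as read-weighted mean over the 8 sorting bins, only variants exceeding 10 total reads kept, mCherry placed adjacent to the peptide and sfGFP distal.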

Row | Sequence | protein stability index (Saccharomyces cerevisiae [1]) | protein stability index (Saccharomyces cerevisiae [3]) | also measured
1 | ACTLPMCPLLLR | 0.318 | – | protein stability index (Saccharomyces cerevisiae [2]): 0.678
2 | AIKLPMCPLLLR | 0.276 | – | protein stability index (Saccharomyces cerevisiae [2]): 0.652
3 | AINLPMCPLLLR | 0.243 | – | protein stability index (Saccharomyces cerevisiae [2]): 0.656
4 | AITAPMCPLLLR | 0.472 | – | protein stability index (Saccharomyces cerevisiae [2]): 0.66
5 | AITDPMCPLLLR | 0.603 | – | protein stability index (Saccharomyces cerevisiae [2]): 0.693
6 | AITEPMCPLLLR | 0.593 | – | protein stability index (Saccharomyces cerevisiae [2]): 0.648
7 | LVVYLSCYACIN | 0.0136 | 0.0478 | –
8 | LVVYLSQVACIN | 0.0161 | 0.0854 | –
9 | LVVYLVCVACIN | 0.0125 | 0.0307 | –
10 | MTSCGYKFRTNN | 0.212 | 0.688 | –
11 | NRGAVGGWRLVG | 0.164 | 0.665 | –
12 | PDARNHLIKLLN | 0.12 | 0.612 | –
13 | PDKDNHLIKLLN | 0.281 | 0.568 | –
14 | PDKENHLIKLLN | 0.265 | 0.602 | –
15 | PDKHNHLIKLLN | 0.0998 | 0.622 | –
16 | PDKNNHLIKLLN | 0.242 | 0.757 | –
17 | PDKRNHEIKLLN | 0.447 | 0.596 | –
18 | PDKRNHLFKLLN | 0.112 | 0.609 | –
19 | PDKRNHLIKALN | 0.252 | 0.589 | –
20 | PDKRNHLIKLHN | 0.359 | 0.593 | –
21 | PDKRNHLIKLLH | 0.154 | 0.612 | –
22 | PDKRNHLIKLLNC | 0.124 | 0.663 | –

Row | Sequence | protein stability index (Saccharomyces cerevisiae [1]) | protein stability index (Saccharomyces cerevisiae [3]) | also measured
23 | PDKRNHLIKLLNF | 0.176 | 0.67 | –
24 | PDKRNHLIKLLNI | 0.216 | 0.662 | –
25 | PDKRNHLIKLLP | 0.595 | 0.596 | –
26 | PDKRNHLIKLLT | 0.205 | 0.622 | –
27 | PDKRNHLIKLLW | 0.578 | 0.586 | –
28 | PDKRNHLIKLSN | 0.486 | 0.609 | –
29 | PDKRNHLIKLTN | 0.292 | 0.568 | –
30 | PDKRNHLIKNLN | 0.473 | 0.54 | –
31 | PDKRNHLIKQLN | 0.0992 | 0.575 | –
32 | PDKRNHLINLLN | 0.113 | 0.605 | –
33 | PDKRNMLIKLLN | 0.0899 | 0.722 | –
34 | PDKRNRLIKLLN | 0.141 | 0.592 | –
35 | PDKRTHLIKLLN | 0.0881 | 0.655 | –
36 | PDKTNHLIKLLN | 0.144 | 0.658 | –
37 | PDRRNHLIKLLN | 0.118 | 0.664 | –
38 | PDSRNHLIKLLN | 0.125 | 0.6 | –
39 | PHKRNHLIKLLN | 0.141 | 0.694 | –
40 | PILAASFWRVVG | 0.145 | 0.678 | –
41 | PKKRNHLIKLLN | 0.149 | 0.596 | –
42 | PMKRNHLIKLLN | 0.069 | 0.569 | –
43 | PRKRNHLIKLLN | 0.141 | 0.633 | –
44 | PSLAAEFWRVVG | 0.168 | 0.697 | –

Row | Sequence | protein stability index (Saccharomyces cerevisiae [1]) | protein stability index (Saccharomyces cerevisiae [3]) | also measured
45 | PSLAASEWRVVG | 0.535 | 0.703 | –
46 | PSLAASFMRVVG | 0.531 | 0.681 | –
47 | PSLAASFWAVVG | 0.601 | 0.686 | –
48 | PSLAASFWHVVG | 0.46 | 0.691 | –
49 | PSLAASFWQVVG | 0.465 | 0.692 | –
50 | PSLAASFWRDVG | 0.645 | 0.695 | –
51 | PSLAASFWRLVG | 0.135 | 0.688 | –
52 | PSLAASFWRVQG | 0.155 | 0.672 | –
53 | PSLAASFWRVVA | 0.131 | 0.68 | –
54 | PSLAASFWRVVG | 0.146 | 0.686 | protein stability index (Saccharomyces cerevisiae [4]; genetic background: cdc34-1, temperature: 37 C): 0.595 ± 0.1; protein stability index (Saccharomyces cerevisiae [4]; genetic background: cdc53-1, temperature: 37 C): 0.749 ± 0.016; protein stability index (Saccharomyces cerevisiae [4]; genetic background: das1 deletion, temperature: 30 C): 0.694 ± 0.051; protein stability index (Saccharomyces cerevisiae [4]; genetic background: das1 deletion, temperature: 37 C): 0.7397 ± 0.0053; protein stability index (Saccharomyces cerevisiae [4]; genetic background: doa10 deletion, temperature: 30 C): 0.102 ± 0.031; protein stability index (Saccharomyces cerevisiae [4]; genetic background: wild type, temperature: 30 C): 0.109 ± 0.037; protein stability index (Saccharomyces cerevisiae [4]; genetic background: wild type, temperature: 37 C): 0.243 ± 0.0024; protein stability index (Saccharomyces cerevisiae [5]): 0.197 ± 0.013
55 | PSLAASFWRVVN | 0.133 | 0.67 | –
56 | PSLAASFWRVVY | 0.636 | 0.682 | –
57 | PSLAASFWTVVG | 0.62 | 0.708 | –
58 | PSLAASFYRVVG | 0.625 | 0.689 | –
59 | PSLAASKWRVVG | 0.138 | 0.666 | –
60 | PSLAASLWRVVG | 0.133 | 0.673 | –
61 | PSLAASVWRVVG | 0.162 | 0.661 | –
62 | PSLAPSFWRVVG | 0.136 | 0.682 | –
63 | PSLARSFWRVVG | 0.293 | 0.7 | –
64 | PSNAASFWRVVG | 0.162 | 0.686 | –
65 | PYKRNHLIKLLN | 0.141 | 0.6 | –
66 | QRGAVGGWRLVG | 0.161 | 0.655 | –

Row | Sequence | protein stability index (Saccharomyces cerevisiae [1]) | protein stability index (Saccharomyces cerevisiae [3]) | also measured
67 | RLIDPLPVQFLN | 0.121 | 0.62 | –
68 | RLIHPLPVQFLN | 0.0474 | 0.616 | –
69 | RLINPLPVQFLN | 0.0773 | 0.668 | –
70 | RLIQILPVQFLN | 0.0377 | 0.546 | –
71 | RLIQPLAVQFLN | 0.0616 | 0.6 | –
72 | RLIQPLHVQFLN | 0.054 | 0.61 | –
73 | RLIQPLPVFFLN | 0.0542 | 0.586 | –
74 | RLIQPLPVQFLNH | 0.646 | 0.661 | –
75 | RLIQPLPVQFLNN | 0.432 | 0.663 | –
76 | RLIQPLPVQFLNP | 0.65 | 0.664 | –
77 | RLIQPLPVQFLV | 0.0819 | 0.643 | –
78 | RLIQPLPVQFLY | 0.28 | 0.682 | –
79 | RLIQPLPVQFSN | 0.591 | 0.601 | –
80 | RLIQPLPVQGLN | 0.659 | 0.739 | –
81 | RLIQPLPVQQLN | 0.125 | 0.596 | –
82 | RLIQPLPVQRLN | 0.0805 | 0.643 | –
83 | RLIQPLPVRFLN | 0.0593 | 0.6 | –
84 | RLIQPLQVQFLN | 0.0288 | 0.63 | –
85 | RLIQPWPVQFLN | 0.0573 | 0.545 | –
86 | RLIQYLPVQFLN | 0.0219 | 0.637 | –
87 | RLVQPLPVQFLN | 0.0538 | 0.628 | –
88 | RVVYLSCVACIN | 0.0144 | 0.0603 | –

Row | Sequence | protein stability index (Saccharomyces cerevisiae [1]) | protein stability index (Saccharomyces cerevisiae [3]) | also measured
89 | TDKRNHLIKLLN | 0.12 | 0.577 | –
90 | VRGAVDGWRLVG | 0.156 | 0.67 | –
91 | VRGAVGAWRLVG | 0.144 | 0.704 | –
92 | VRGAVGGTRLVG | 0.63 | 0.673 | –
93 | VRGAVGGWDLVG | 0.664 | 0.656 | –
94 | VRGAVGGWRLEG | 0.642 | 0.69 | –
95 | VRGAVGGWRLIG | 0.146 | 0.674 | –
96 | VRGAVGGWRLVC | 0.143 | 0.634 | –
97 | VRGAVGGWRLVGG | 0.66 | 0.682 | –
98 | VRGAVGGWRLVGW | 0.666 | 0.668 | –
99 | VRGAVGGWRPVG | 0.667 | 0.671 | –
100 | VRGAVGGWRWVG | 0.144 | 0.682 | –
101 | VRGAVGGWVLVG | 0.202 | 0.659 | –
102 | VRGAVGGWWLVG | 0.455 | 0.669 | –
103 | VRGAVGVWRLVG | 0.16 | 0.665 | –
104 | VRGIVGGWRLVG | 0.171 | 0.682 | –
105 | VRGQVGGWRLVG | 0.147 | 0.677 | –
106 | VRRAVGGWRLVG | 0.145 | 0.695 | –
